Measurements: paper PMC5712780, “Ymr210wp leads to the accumulation of phospholipids and steryl esters in yeast” (Bioinformation, 2017)

Tests used:
Assay in all cases: p-nitrophenyl ester hydrolysis assay, Michaelis-Menten fit
Type in all cases: biochemical, Saccharomyces cerevisiae
[1] = substrate: CC(=O)Oc1ccc([N+](=O)[O-])cc1; conditions: optimum pH 7.5 and 30°C (kinetic conditions not stated); text b29 prints error ±2.95; pH 7.5; 30.0 °C
Text: (§1) p-nitrophenyl ester hydrolysis assay, Michaelis-Menten fit on Ymr210wp

[2] = substrate: CCCCCCCCCCCCCCCC(=O)Oc1ccc([N+](=O)[O-])cc1; conditions: optimum pH 8.5 and 45°C (kinetic conditions not stated); pH 8.5; 45.0 °C
Text: as §1

[3] = substrate: CCCC(=O)Oc1ccc([N+](=O)[O-])cc1; conditions: optimum pH 7.5 and 30°C (kinetic conditions not stated); pH 7.5; 30.0 °C
Text: as §1

B1: Ymr210wp (Saccharomyces cerevisiae S288C) (protein)
chain: MRLKELLPNFLIVHQEVPEDPIAFKSTDKRENENKEITIPELIDTKVPELADGATDTLYGLLVNGHLQTAYGSFRHFDNIYKVQYKRMIIKYPHGGEGTVDFAVNGRSTKRRKVEKEYVPTSQPVFNGNLKRRYSYYSPDDPKLNSDDAKPMLIILHGLTGGSRESYVRAIVHEITTKYDFEACVFNARGCCYSAITTPLLYNGGWTNDIRYCVNDLRKRFPNRKFYMMGFSLGASIMTNYLGEESDRTKIECAISVSNPFDLYNSAYFINSTPMGSRFYSPALGHNLLRMVRNHLSTLEENPDFKDVIEKHLKKIRTVRQFDNLLTGPMFGYKNAEEYYKNASSYKRIPGIRTPFIALHAQDDPIVGGDLPIDQIKSNPYTLLLETSTGGHVGWFKDRSGRRWYAEPLCRFLKIFHDEITVKGLKPDLENVQLPDPNCEPIATTFRAN
notes: YMR210w cloned in pYES2/CT, His-tagged, expressed in S. cerevisiae BY4741, Ni-NTA purified
Km [1]: 11.51 ± 1.09 mM | Km [2]: 13.19 ± 1.03 mM | Km [3]: 7.28 ± 1.61 mM
